Columns and labels:
[1] = target: purified recombinant mature TGFβ1 (expressed in CHO cells from the modified porcine TGFβ1 cDNA) (porcine) (UniProt P07200); experiment: surface plasmon resonance, steady state response, double reciprocal plot; x axis printed as 1/[TβRII] (µM-1), y axis 1/Binding RU
[2] = target: purified recombinant mature TGFβ1 (expressed in CHO cells from the modified porcine TGFβ1 cDNA) (porcine) (UniProt P07200); experiment: SPR (BIAcore 3000); TGFβ1 immobilised on a CM5 chip, TβRII 150 nM to 0.6 nM as analyte; steady state, linear regression of 1/Response versus 1/C; TGFβ1 immobilised on the chip, TβRII as analyte; steady state

Sequence of UniProt P07200 (P07200 279-390): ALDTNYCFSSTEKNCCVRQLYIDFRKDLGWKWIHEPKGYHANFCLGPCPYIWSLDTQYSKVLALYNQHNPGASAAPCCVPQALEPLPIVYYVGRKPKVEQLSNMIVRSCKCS

intercept of the linear regression of 1/Binding RU against 1/[TβRII] [1]: 0.00102 | Kd [2]: 55 nM
Substance: TGFβ1 type II receptor (residues 22-136), refolded from inclusion bodies (from UniProt P37173 45-159)

Reference: US20110165623A1
